The source of these data is patent US6673902B2, “Cyclin D binding factor, and uses thereof” (St. Jude Children's Research Hospital, priority 1996, dated 2004).

Experiment [1] concerns 281 bp ARF promoter fragment. Kind of experiment: Transactivation of ARF promoter-luciferase reporter in NIH-3T3 cells. The class given is cell-based, mouse. The conditions noted are these: NIH-3T3, 281 bp ARF promoter fragment-luciferase. The protocol:
Transactivation assays. NIH-3T3 cells were transfected with 4 μg of pGL2-ARFpro BamHI or its DMP1 binding site mutant, with or without increasing amount of pFLEX-DMP1, pEVRFO-Ets1, pCMV-Ets2, pRcRSV-Elfl, pdEB-Fli1, p(IEB-EWS-Fli1 or pCMV-E2F-1 (89-437), and 4 μg β-actin SEAP control vectors [Inoue and Sherr, Mol. Cell. Biol. 18: 1590-1600 (1998); Inoue et al., J. Biol. Chem. 273:29188-29194 (1998); Davis and Roussel, Gene 171:265-269 (1996); Baily et al., Mol. Cell. Biol. 14:3230-3241 (1994)]. Transfections and normalization of luciferase levels with internal control SEAP levels were performed as described [Inoue and Sherr, Mol. Cell. Biol. 18:1590-1600 (1998)].
Similarly, DMP1 deletion mutants defective in transactivation [Inoue and Sherr, Mol. Cell. […] Mutation of the DMP1 binding site within the ARF promoter [changing CCCGGATGC, (SEQ ID NO:33) to CCCGTCGAC, (SEQ ID NO:42)] also completely abolished transactivation by wild-type DMP1 (FIG. 14C, mutant reporter). Therefore, sequences within the −189 to −181 ARF promoter segment were the only ones responsible for DMP1-mediated transactivation. Although Ets1 could bind to a 23 base pair oligonucleotide containing the DMP1 consensus site (FIG. 14B), several Ets proteins were unable to induce significant reporter gene expression from the more complex 281 base pair ARF promoter (FIG. 14C). […]

The subject of experiment [2] is wild-type MEFs. Description: Apoptosis assay in wild-type MEFs deprived of serum. The class given is cell-based, mouse. On the procedure:
Apoptosis assays. Wild-type MEFs infected with the indicated retroviruses for 36 hours were starved for serum for 24 hours. Viability was determined by trypan blue dye exclusion, and DNA fragmentation was monitored by a terminal deoxynuclectidyl transferase (FACS-TUNEL) assay and by measurement of subdiploid DNA content of propidium iodide-stained nuclei [Zindy et al., Genes Dev. 12:2424-2433 (1998)].
On the other hand, MEFs overexpressing c-Myc, E2F-1, or E1A are exquisitely sensitive to apoptosis. […] 12:2424-2433 (1998); De Stanchina et al., Genes Dev. 12:2434-2442 (1998)].

B1: Fli1: Ets family member (protein, UniProt P26323 1-452, looked up)
Friend leukemia integration 1 …: MDGTIKEALSVVSDDQSLFDSAYGAAAHLPKADMTASGSPDYGQPHKINPLPPQQEWINQPVRVNVKREYDHMNGSRESPVDCSVSKCNKLVGGGEANPMNYNSYMDEKNGPPPPNMTTNERRVIVPADPTLWTQEHVRQWLEWAIKEYGLMEIDTSFFQNMDGKELCKMNKEDFLRATSAYNTEVLLSHLSYLRESSLLAYNTTSHTDQSSRLNVKEDPSYDSVRRGAWNNNMNSGLNKSPLLGGSQTMGKNTEQRPQPDPYQILGPTSSRLANPGSGQIQLWQFLLELLSDSANASCITWEGTNGEFKMTDPDEVARRWGERKSKPNMNYDKLSRALRYYYDKNIMTKVHGKRYAYKFDFHGIAQALQPHPTETSMYKYPSDISYMPSYHAHQQKVNFVPSHPSSMPVTSSSFFGAASQYWTSPTAGIYPNPSVPRHPNTHVPSHLGSYY
B1: the “ARF promoter reporter gene expression” value in experiment [1] is “minimal activity”.

B2: ARF: ARF tumor suppressor protein (protein)
chain: MGRRFLVTVRIQRAGRPLQERVFLVKFVRSRRPRTASCALAFVNMLLRLERILRRGPHRNPGPGDDDGQRSRSSSSAQLRCRFELRGPHYLLPPGARRSAGRLPGHAGGAARVRGSAGCARCLGSPAARLGPRAGTSRHRAIFAFRWVLFVFRWVVFVYRWERRPDRRA
On to B2, for which the “apoptosis / cell death” value in experiment [2] was “did not trigger apoptosis”.
